Data on 3 molecules can be found in US20220411498A1 (JACOBIO PHARMACEUTICALS, published 2022).

Assay [1] addresses T1, cyno CD39 on the cell surface (293T/17-cyno CD39 cells) (cyno, UniProt P49961 7-510 (human entry)).
T1 construct: 293T/17 cells stably transfected with the cyno CD39 gene
T1 chain: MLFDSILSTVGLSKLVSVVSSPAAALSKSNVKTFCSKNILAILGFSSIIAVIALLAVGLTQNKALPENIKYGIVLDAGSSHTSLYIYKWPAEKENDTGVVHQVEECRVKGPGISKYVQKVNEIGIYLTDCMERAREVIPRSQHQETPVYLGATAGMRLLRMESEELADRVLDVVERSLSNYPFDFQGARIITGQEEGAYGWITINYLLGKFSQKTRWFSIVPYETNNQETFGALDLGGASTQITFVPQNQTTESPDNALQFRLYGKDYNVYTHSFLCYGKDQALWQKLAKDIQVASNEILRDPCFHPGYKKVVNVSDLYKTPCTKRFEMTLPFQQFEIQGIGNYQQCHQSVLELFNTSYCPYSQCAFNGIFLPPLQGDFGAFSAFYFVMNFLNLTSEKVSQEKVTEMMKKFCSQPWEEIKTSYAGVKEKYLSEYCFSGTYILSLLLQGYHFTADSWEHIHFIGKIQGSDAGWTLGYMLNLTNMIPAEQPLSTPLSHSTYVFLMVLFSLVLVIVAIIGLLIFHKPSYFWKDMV
Description: flow cytometry on 293T/17-cyno CD39 cells. The protocol: (§1) Flow cytometry assay: recombinant host cell line 293T/17-huCD39 cells expressing huCD39 and recombinant host cell line 293T/17-cyno CD39 cells expressing cyno CD39 were used to evaluate the binding ability of the chimeric antibody to the natural CD39 protein on the cell surface. The recombinant cells were resuspended in PBS buffer, and 2×10⁶ cells were added to a 96-well U-plate. The chimeric antibody in a certain gradient dilution range incubated for 1h at 4° C. in a refrigerator or on ice, centrifuged at 1500 rpm for 3 min at 4° C., washed three times with PBS buffer, and then incubated for 30 min at 4° C. in the refrigerator or on ice with diluted Alexa Fluor 488-labeled goat anti-human polyclonal antibody (pAb): Goat anti-Human IgG (H+L) Cross-Adsorbed Secondary Antibody, Alexa Fluor 488 (thermo). Finally the cells were washed three times with PBS as described above and analyzed in MACSQuant flow cytometry. GraphPad Prism software was used to generate data plots and count affinity data (FIG. 2). The results are shown in Table 2, and the EC₅₀ values of each chimeric antibody of 293T/17-huCD39 and 293T/17-cyno CD39 was at the level of 10⁻⁹M.

The target of assay [2] is T2, huCD39 on the cell surface (293T/17-huCD39 cells) (human, UniProt P49961 1-510).
T2 sequence (looked up): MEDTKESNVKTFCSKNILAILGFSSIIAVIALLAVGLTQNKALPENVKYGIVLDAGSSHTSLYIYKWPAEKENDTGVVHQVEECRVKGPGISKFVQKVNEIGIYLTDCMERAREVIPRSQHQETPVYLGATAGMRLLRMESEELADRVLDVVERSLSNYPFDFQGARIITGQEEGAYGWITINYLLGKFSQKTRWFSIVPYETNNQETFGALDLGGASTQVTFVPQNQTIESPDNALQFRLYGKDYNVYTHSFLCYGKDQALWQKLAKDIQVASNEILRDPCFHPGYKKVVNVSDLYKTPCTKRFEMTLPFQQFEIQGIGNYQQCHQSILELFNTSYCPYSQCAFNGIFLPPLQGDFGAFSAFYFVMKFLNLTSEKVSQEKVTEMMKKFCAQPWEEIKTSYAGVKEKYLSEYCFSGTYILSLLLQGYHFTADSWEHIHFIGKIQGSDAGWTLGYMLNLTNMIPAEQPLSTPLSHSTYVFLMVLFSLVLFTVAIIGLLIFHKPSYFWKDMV
Description: cell-based or functional assay.

Assay [3] concerns the target T1, cyno CD39 on the cell surface …. Description: cell-based or functional assay.
Assay [4] concerns the target T2, huCD39 on the cell surface …. Description: flow cytometry on 293T/17-huCD39 cells. The protocol:
as §1
On the technique in general: In flow cytometry, cells or beads pass a laser one at a time.

The target in assay [5] is T3, huCD39 recombinant protein (human, UniProt P49961 38-478).
T3 construct: the entry is the extracellular domain and ends in a histidine tag; also called soluble huCD39 protein; human CD39 extracellular domain recombinant protein
T3 sequence: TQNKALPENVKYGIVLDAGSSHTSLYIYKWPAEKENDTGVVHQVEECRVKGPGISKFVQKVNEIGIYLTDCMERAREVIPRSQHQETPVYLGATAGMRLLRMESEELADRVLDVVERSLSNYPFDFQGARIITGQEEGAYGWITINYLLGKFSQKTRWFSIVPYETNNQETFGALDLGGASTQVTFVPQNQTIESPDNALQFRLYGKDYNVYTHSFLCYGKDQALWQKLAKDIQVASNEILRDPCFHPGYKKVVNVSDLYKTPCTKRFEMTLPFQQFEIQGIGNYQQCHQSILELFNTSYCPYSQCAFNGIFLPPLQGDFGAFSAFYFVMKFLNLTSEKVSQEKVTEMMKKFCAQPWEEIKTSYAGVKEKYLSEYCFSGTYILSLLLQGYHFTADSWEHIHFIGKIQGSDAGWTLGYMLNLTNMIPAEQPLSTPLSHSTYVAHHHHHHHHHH
Description: indirect ELISA, huCD39 recombinant protein coated at 1 ug/mL. The protocol: The Fv region of the four mouse-derived antibodies obtained in Example 1 was fused with the human IgG2 Fc region and constructed into the pcDNA3.1 vector. Then transfected 293F cells to express the antibody proteins, and the antibodies were purified by ProteinA affinity chromatography. […] The next day, the plates were washed 5 times with PBS buffer and blocked with 200 μL/well of 2% skimmed milk powder for 1 h. A certain dose range of chimeric CD39 antibody was incubated for 1 h at room temperature; then washed 5 times with PBST washing buffer (PBS, 0.05% Tween 20). 100 μL of HRP-labeled secondary antibody was added to each well and the plates were incubated for 30 min at room temperature. The plates were washed 5 times again and TMB (Life Technologies) was added for color development for 5 to 10 min. At last, 1N HCl was added to terminate the reaction, and the OD value was measured at 450 nm. GraphPad Prism software was used to generate data plots and the affinity data was counted (FIG. 1).
For orientation: An ELISA detects its analyte on a solid surface through an enzyme-linked reagent.

B1: 216 hIgG2 (antibody, V domains shown)
VH: EVQLVESGGGLVKPGGSLKLPCAASGFTFSDYGMHWVRQAPEKGLEWVAYISSGSSIIYYADTVKGRFTISRDNAKNTLFLQMTSLRSEDTAMYYCARDLYYDHVLDYWGQGTTLTVAS
VL: DIQMTQSPSSLSASLGERVSLTCRASQEISGYLIWLQQKPDGTIKRLIYAASTLDSGVPKRFSGNRSGSDYSLTISSLESEDFADYYCLQYASYPRTFGGGTKLEIKR
notes: Chimeric antibody: mouse Fv fused to the human IgG2 constant region; also called chimeric antibody 216
As to B1, in assay [1], the Bottom was determined as 1.81, a half-maximal response (EC50) required 11 nM and the Top came out at 191. For the same molecule, in assay [2], the “Blocking of ATPase activity on cell surface (293T/17-huCD39, CellTiter Glo): EC50” value (“Blocking … (293T/17-huCD39, CellTiter Glo): EC50” for short) came to 0.011 nM and the “Blocking of ATPase activity on cell surface (293T/17-huCD39, CellTiter Glo): Top” value (shortened to “Blocking … (293T/17-huCD39, CellTiter Glo): Top”) was found to be 1.03e+06. In addition, in assay [3], the “Blocking of ATPase activity on cell surface (293T/17-cyno CD39, CellTiter Glo): Bottom” value amounted to 55600; the “Blocking of ATPase activity on cell surface (293T/17-cyno CD39, CellTiter Glo): EC50” value turned out to be 0.024 nM; the “Blocking of ATPase activity on cell surface (293T/17-cyno CD39, CellTiter Glo): Top” value was 275000. Besides, in assay [4], the Bottom is 2.17; the midpoint of the response, the EC50, lay at 5.92 nM; the Top came out at 151. Further, in assay [5], the Bottom came to 0.06 OD450, the EC50 worked out at 2.43 nM and the Top is 1.43 OD450.

B2: 217 hIgG2 (antibody, V domains shown)
VH: EVQLVESGGGLVKPGGSLKLSCAASGFTFSDYGMHWVRQAPEKGLEWVAYISSGSSVIYYVDTVKGRFTISRDNAKNTLFLQMTSLRSEDTAMYYCARDLYYDHVLDSWGQGTTLTVSS
VL: DIQMTQSPSSLSASLGERVSLTCRASQEIGGYLSWLQQKPDGTIKRLIYAASTLDSGVPKRFSGSRSGSDYSLTISSLESEDFADYYCLQYASYPRTFGGGTKLEIKR
notes: Chimeric antibody: mouse Fv fused to the human IgG2 constant region
Regarding B2, in assay [1], the Bottom was found to be 3, the EC50 was 9.49 nM and the Top came to 160. In assay [2], the “Blocking of ATPase activity on cell surface (293T/17-huCD39, CellTiter Glo): Bottom” value was determined as 147000; the “Blocking … (293T/17-huCD39, CellTiter Glo): EC50” value was determined as 0.008 nM; the “Blocking … (293T/17-huCD39, CellTiter Glo): Top” value came out at 1.19e+06. In assay [3], the “Blocking of ATPase activity on cell surface (293T/17-cyno CD39, CellTiter Glo): Bottom” value is 42200; the “Blocking of ATPase activity on cell surface (293T/17-cyno CD39, CellTiter Glo): EC50” value stood at 0.029 nM; the “Blocking of ATPase activity on cell surface (293T/17-cyno CD39, CellTiter Glo): Top” value is 283000. In assay [4], this molecule returned a Bottom of 5.8, an EC50 of 3.8 nM and a Top of 116. In addition, in assay [5], the Bottom was found to be 0.07 OD450, the EC50 came to 4.8 nM and the Top is 1.39 OD450.

B3: 201 hIgG2 (antibody, V domains shown)
VH: EVQLVESGGGLVKPGGSLKLSCAASGFTFSDYGMHWVRQAPEKGLEWVAYISSGSSIMYYADTVKGRFTISRDNAKNTLFLQMASLRSEDTAMYYCARDLYYDHVLDYWGQGTTLTVSS
VL: DIQMTQSPSSLSASLGERVSLTCRASQEIRGYLIWLQQKPGGTIKRLIYAASTLDSGVPKRFSGSRSGSDYSLTISSLESEDFADYYCLQYTSYPRTFGGGTKLEIKR
notes: Chimeric antibody: mouse Fv fused to the human IgG2 constant region, expressed in 293F cells; also called chimeric antibody 201
On to B3, for which, in assay [1], the Bottom is 3.23, the 50% effective concentration (EC50) came to 8.69 nM and the Top turned out to be 209. Also, in assay [2], the “Blocking of ATPase activity on cell surface (293T/17-huCD39, CellTiter Glo): Bottom” value was determined as 119000; the “Blocking … (293T/17-huCD39, CellTiter Glo): EC50” value is 0.004 nM; the “Blocking … (293T/17-huCD39, CellTiter Glo): Top” value was 871000. Besides, in assay [3], the “Blocking of ATPase activity on cell surface (293T/17-cyno CD39, CellTiter Glo): Bottom” value was found to be 42300; the “Blocking of ATPase activity on cell surface (293T/17-cyno CD39, CellTiter Glo): EC50” value was 0.014 nM; the “Blocking of ATPase activity on cell surface (293T/17-cyno CD39, CellTiter Glo): Top” value came to 232000. In assay [4], this molecule yielded a Bottom of -6.24, an EC50 of 6.56 nM and a Top of 189. In assay [5], the Bottom came to 0.046 OD450, the EC50 stood at 1.4 nM and the Top stood at 1.64 OD450.

As usually defined, the EC50 is the concentration that produces a half-maximal response.
